Here are results for 1 substance from paper PMC4255305.

This assay has as its target (R)-selective amine : pyruvate transaminase from Nectria haematococca, His-tagged (construct pQR1023) (Nectria haematococca). Briefly: SEC; Superdex 200 HiLoad 16/60 gel filtration, 50 mM Tris/HCl, 0.1 M NaCl pH 7.5, 1.0 mL/min; dimer from the elution volume. In general terms: In gel filtration, larger molecules generally elute earlier.

By stoichiometry N is commonly meant the number of molecules, sites or subunits per partner or assembly. “(R)-selective amine : pyruvate transaminase from Nectria haematococca, His-tagged (construct pQR1023) (enzyme)” registered a stoichiometry N of 2.
